The source of these data is PMC6018636, “Mutually exclusive acetylation and ubiquitylation of the splicing factor SRSF5 control tumor growth” (Nature Communications, 2018).

For the assay, the target named is T1, His-Smurf1 (UniProt Q9HCE7-2 1-731).
T1 construct: Smurf1, inserted into pET-28a; also called His-tagged Smurf1; source: Escherichia coli BL21, purified
The assay is described as follows: pull-down; bacteria-expressed GST-tagged protein immobilised on glutathione-Sepharose 4B beads, incubated with His-tagged protein for 8 h at 4 °C; washed with GST-binding buffer (100 mM NaCl, 50 mM NaF, 2 mM EDTA, 1% NP-40); immunoblotting. The conditions noted are these: both partners purified. For orientation: A western blot detects proteins with antibodies after separation by electrophoresis.

T1 sequence (Q9HCE7 other isoform, or with tags, fused parts or gaps): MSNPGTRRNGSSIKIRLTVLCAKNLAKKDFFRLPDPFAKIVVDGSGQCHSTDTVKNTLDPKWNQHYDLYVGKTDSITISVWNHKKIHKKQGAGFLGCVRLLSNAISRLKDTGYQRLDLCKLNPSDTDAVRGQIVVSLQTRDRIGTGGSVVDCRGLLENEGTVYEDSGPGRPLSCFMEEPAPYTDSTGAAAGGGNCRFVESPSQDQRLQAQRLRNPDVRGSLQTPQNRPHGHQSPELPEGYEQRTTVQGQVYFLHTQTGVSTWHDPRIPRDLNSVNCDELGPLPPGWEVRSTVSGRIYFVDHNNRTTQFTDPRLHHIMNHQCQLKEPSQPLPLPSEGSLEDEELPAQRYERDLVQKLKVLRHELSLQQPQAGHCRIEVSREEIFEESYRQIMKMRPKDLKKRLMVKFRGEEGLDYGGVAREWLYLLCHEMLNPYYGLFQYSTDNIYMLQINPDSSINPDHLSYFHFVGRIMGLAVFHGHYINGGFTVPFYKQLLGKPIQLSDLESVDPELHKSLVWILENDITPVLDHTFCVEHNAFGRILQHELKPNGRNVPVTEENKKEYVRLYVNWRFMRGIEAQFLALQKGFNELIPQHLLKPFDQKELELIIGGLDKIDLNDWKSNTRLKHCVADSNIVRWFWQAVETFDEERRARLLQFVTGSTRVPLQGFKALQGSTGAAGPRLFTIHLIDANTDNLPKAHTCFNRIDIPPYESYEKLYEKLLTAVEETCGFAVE

B1: GST-SRSF5 (natural protein, UniProt Q13243 1-272, looked up)
chain: MSGCRVFIGRLNPAAREKDVERFFKGYGRIRDIDLKRGFGFVEFEDPRDADDAVYELDGKELCSERVTIEHARARSRGGRGRGRYSDRFSSRRPRNDRRNAPPVRTENRLIVENLSSRVSWQDLKDFMRQAGEVTFADAHRPKLNEGVVEFASYGDLKNAIEKLSGKEINGRKIKLIEGSKRHSRSRSRSRSRTRSSSRSRSRSRSRSRKSYSRSRSRSRSRSRSKSRSVSRSPVPEKSQKRGSSSRSKSPASVDRQRSRSRSRSRSVDSGN
notes: splicing factor SRSF5, inserted into pGEX-6P-1; also called GST–SRSF5 fusion protein; source: Escherichia coli BL21, purified; immobilised on glutathione-Sepharose 4B beads
Turning to B1, the binding result is on record as “binds”.
